Reference: the nanobody polyreactivity screen of Harvey et al. (2022)

Experiment: yeast display, Sf9 membrane polyspecificity reagent, FACS + sequencing; frameworks hold sequencing errors
In short: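 In a synthetic yeast display library (Saccharomyces cerevisiae BJ5465), nanobody expression was induced with galactose for 36–48 hours. FACS gates were set low and high (top ~1%) using anti-HA fluorescence for expression and streptavidin fluorescence for binding of the Sf9 membrane reagent. Each polyreactivity label is drawn from the gate of origin.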

For “QVHLVESGGGLVQAGGSLRLSCAASGSIFYWYAMGWYRQAPGKERELVAAITWSGGSTYYADSVKGRFTISRDNAKNTVDLQMNSLKPEDTAVYYCAALVYGYPRWSGKYDYWGQVTQVTVSS”, which “polyreactivity (PSR sort gate)” value is on record?
The value was “high polyreactivity”.

For “QVHLVESGGGLVQAGGSLRLSCAASGSIIIRNAMGWYRQAPGKERELVATITRSGSTYYADSVKGRFTISRDNAKNTVYLQMNSLKPEDTAVYYFAADWPNLVEYYYWGQGTQVTVSS”, which “polyreactivity (PSR sort gate)” value is on record?
Its value is “high polyreactivity”.

Which “polyreactivity (PSR sort gate)” value does the source give for “QVHLVESGGGLVQAGGSLRLSCAASGSILSINGRGWSRQAPGKERELVATIDGSDGSTFYADSVKGRFTISRDNAKNTVYLQMNSLKPEDTAVYYCAAENFWQTKEYDYWGQGTQVTVSS” here?
The value was “low polyreactivity”.

Which “polyreactivity (PSR sort gate)” value does the source give for “QVHLVESGGGLVQAGGSLRLSCAASGSNFYPYAMGWYRQEPGKERELVAAIRWRGDRTYYADSVKGRFTISRDNAKKTVYLQMNSLKPEDTGVYYCAADLSGWSTHGSWGQATQVTVSS” here?
Its value is “high polyreactivity”.

Which “polyreactivity (PSR sort gate)” value does the source give for “QVHLVESGGGLVQAGGSLRLSCAASGSTFALYGMGWYRQAPGKERELVAASTWSGTGTYYADSVKGRFTISRDNAKNTVYLQMNSLKPEDTAVYYCAADGYTTYYSEFYYWGQATQVTVSS” here?
Its value is “low polyreactivity”.

For “QVHLVESGGGLVQAGGSLRLSCAASGSTFGYYTMGWYRQAPGKERELVAAISGSGDSTYYADSVKGRFTISRDNAKNTVYLQMNSLKPEDTAVYYCAKRYYKRYNYWGQGTQVTVSS”, which “polyreactivity (PSR sort gate)” value is on record?
Its value is “high polyreactivity”.

For “QVHLVESGGGLVQAGGSLRLSCAASGSTFKIYAMGWYRQAPGKERELVAAITRGGSTNYADSVKGRFTISRDNAKNTVYLQMNSLKPEDTAVYYCAASYWYRRYGTYTYDYWGQGTQVTVSS”, which “polyreactivity (PSR sort gate)” value is on record?
The value was “high polyreactivity”.

Which “polyreactivity (PSR sort gate)” value does the source give for “QVHLVESGGGLVQAGGSLRLSCAASGSTFQRYAMGWDRQAPGKERELDAAITIRGTRTYYADSVKGRFTISRDNAKNTVYLQMNSLKPEDTAVYYCAATYYWYGHPSRRYDYWGQGTQVTVSS” here?
Its value is “high polyreactivity”.

Which “polyreactivity (PSR sort gate)” value does the source give for “QVHLVESGGGLVQAGGSLRLSCAASGSTFRLYAMRWNRQAPGKERELVASITFSDSNTSYADSVKGRFTISRDNAKNTVYLQMNSLKPEDTAVYYCAKETSYENVVYTFDYDYWGQGTQVTVSS” here?
The value was “low polyreactivity”.

Which “polyreactivity (PSR sort gate)” value does the source give for “QVHLVESGGGLVQAGGSLRLSCAASGSTFTYYAMGWYRQAPGKERELVAAISRRGGSTYYADSVKGRFTISRDNAKNTVYLQMNSLKPEDTAVYYCNVVIYSYGCNGRYDFWGQGTQVTVSS” here?
The value was “high polyreactivity”.

Which “polyreactivity (PSR sort gate)” value does the source give for “QVHLVESGGGLVQAGGSLRLSCAASGSTFVTNAMGWYRQAPGKERELVAAITSGAGTYYADSVKGRFTISRDNAKNTVYLQMNSLKPEDTAVYYCAARRYYSRGRYRFGYWGQGTQVTVSS” here?
Its value is “high polyreactivity”.

With “QVHLVESGGGLVQAGGSLRLSCAASGSTFVTYAMGWYTQAPGKEREFVAAISSTGTGRTYYADSVKGRFTISRDNAKNTVYLQMNSLKPEDTAVYYCAADLYGTYDYCGQGTQVTVSS” as the sequence, how does the “polyreactivity (PSR sort gate)” value read?
Its value is “low polyreactivity”.

For “QVHLVESGGGLVQAGGSLRLSCAASGSTFYRYAMGWYRQAPGKEREFVASISKRGGSTYYADSVKGRFTISRDNAKNTVYLQMISLKPEETAVYYCAADPKFFSGSYLYGYWGQGTQVTVSS”, which “polyreactivity (PSR sort gate)” value is on record?
The value was “high polyreactivity”.

Which “polyreactivity (PSR sort gate)” value does the source give for “QVHLVESGGGLVQAGGSLRLSCAASGSTFYRYAMGWYRQAPGKERELVAAITRSGGSTYYADSVKGRFTISRDNAKNTVYLLMNSLKPEDTAVYYCAADRYYVYTFYYWGQGTQVTVSS” here?
The value was “high polyreactivity”.

With “QVHLVESGGGLVQAGGSLRLSCAASGSTFYYNAMGWYRQAPGKERELDAAITFTGGSTYADSVKGRFTISRDNAKNTVYLQMNSLKPEDTAVYYCAAESLISWRYDYWGQGTQVTVSS” as the sequence, how does the “polyreactivity (PSR sort gate)” value read?
The value was “low polyreactivity”.

Which “polyreactivity (PSR sort gate)” value does the source give for “QVHLVESGGGLVQAGGSLRLSCAASGSTILFYAMGWYRQAPGKERELVATISRGGSTYYADSVKGRFTISRDNAKNTVYLEMNSLKPEDTAVYYCAARATRVTIAPRYGYWGQGTQVTVSS” here?
The value was “low polyreactivity”.

Which “polyreactivity (PSR sort gate)” value does the source give for “QVHLVESGGGLVQAGGSLRLSCAASGSTIYYNAMGWYRQAPGKERELVAAISKSSSRTYYADSVKGRFTISRDNAKNTVYLQMNSLKTEDTAVYFCAADAVYFHFDYWGQGTQVTVSS” here?
The value was “high polyreactivity”.

For “QVHLVESGGGLVQAGGSLRLSCAASGSTLHYYTMGWYRQEPGKERELVAAITSGGSTHYADSVKGRFTISRDNAKNTVYLQMNSLKPEDTAVYYCAVKTGKWIPRDYWGQGTQVTVSS”, which “polyreactivity (PSR sort gate)” value is on record?
The value was “low polyreactivity”.

Which “polyreactivity (PSR sort gate)” value does the source give for “QVHLVESGGGLVQAGGSLRLSCAASGYIFGGYAMGWSRQAPGKEREFVAAISDISGSTYYADSVKGRFTISRDNAKNTVYLQMNSLKPEDTAVYYGGHTSTADEDYWGQGTQVTVSS” here?
The value was “low polyreactivity”.

With “QVHLVESGGGLVQAGGSLRLSCAASGYTFGHYAMGWYRQAPGKERELVAVITSGGSTNYADSVKGRFTISRDNAKNTVYLQMNSLKPEDTAVYYCAADLYFYYVWIRDYWGQGTQVTVSS” as the sequence, how does the “polyreactivity (PSR sort gate)” value read?
The value was “low polyreactivity”.

Which “polyreactivity (PSR sort gate)” value does the source give for “QVHLVESGGGLVQAGGSLRLSCAASGYTFQWYDRGWYRQAPGKERELVASISWRGGSTYYADSVKGRFTISRDNAKNTVYLQMNSLKPEDTAVYYCAASLWPDYEYVYWGQGTQVTVSS” here?
The value was “low polyreactivity”.

With “QVHLVESGGGLVQAGGSLRLSCAASGYTRFYALGWYRQAPGKERELVAAISSSGGNTYYADSVKGSFTISRDNAKNTVYLQMNSLKPEDTAVYYCAKYVSYSRTLYDYWGQGTQVTVSS” as the sequence, how does the “polyreactivity (PSR sort gate)” value read?
Its value is “high polyreactivity”.

With “QVHLVESGGGLVQAGGSLRLSCAATGRTFRSYAMGWYRQAPGKEREFVAAISRSGASTRYPDSVKGRFTISRDIAKTTVYLQMNSLKPEVTAVYYCAAVWPDVRGYDYWGQGTEVTVSS” as the sequence, how does the “polyreactivity (PSR sort gate)” value read?
Its value is “high polyreactivity”.

For “QVHLVESGGGLVQAGGSLRLSCAATGSTFAHNDMGWYRQAPGKERELVAAITWGDSSTYYADSVKGRFTISRDNAKNTVYLQMNSLKPEDTAVYYCAKDYGFTGYGYWGQGTQVTVSS”, which “polyreactivity (PSR sort gate)” value is on record?
The value was “low polyreactivity”.

For “QVHLVESGGGLVQAGGSLRLSCAGSGRTFRYYAMGWYGQAPGKERELVAAISVRTGSTSDADSVKGRFTISRDNAKNTVYLQMNSLNPEDTAVYYCAATSRYFQPPGYGGGRIGYGYWGQGTQVTVSS”, which “polyreactivity (PSR sort gate)” value is on record?
Its value is “high polyreactivity”.

Which “polyreactivity (PSR sort gate)” value does the source give for “QVHLVESGGGLVQAGGSLRLSCASSGSIFRYNTMGWYRQAPGKERELVAAIRGDGSTNYADSVKGRFTISRDNAKNTVYLQMNSLKPEDTAVYYCAVNLRGYRYAYDYWGQGTKVTVSS” here?
Its value is “low polyreactivity”.

For “QVHLVESGGGLVQAGGSLRLSCASTGIIFLRNAMGWYRQAHGKERELVAAISYRGGSTYYADSVKGRFTISRDNANNTVYLQMNSLKPEDTAVYYCNDLYTSLYDYWGQGTQVTVSS”, which “polyreactivity (PSR sort gate)” value is on record?
The value was “high polyreactivity”.

With “QVHLVESGGGLVQAGGSLRLSCDASGLTLWTYAMGWSRQAAGKEMELVARIRSGGSTYYADSVKGRFTFSRDNAKNTVYLQMNSLKPEDTAVYSCNAKRYGRWAAAGRVGYDYWGQGTQVTVSS” as the sequence, how does the “polyreactivity (PSR sort gate)” value read?
The value was “high polyreactivity”.

With “QVHLVESGGGLVQAGGSLRLSCDASGSIFASNTMGWYRQEPGQERELVAGITKIGSSTYYADSVKGRFTISRDHAKNTVYLKMNSLTPEDTAVYYCNAYGPNIYSSRYEYWGQGTQVTVSS” as the sequence, how does the “polyreactivity (PSR sort gate)” value read?
The value was “low polyreactivity”.

With “QVHLVESGGGLVQAGGSLRLSCSASGSTFYIYTMGCYRQAPGKARELVAAISSSGGSTYYADSVKGRFTISRDNAKNTVYLQMNILKPEDTAVYYCAADPWVRLEYDYWGQGTQVTVSS” as the sequence, how does the “polyreactivity (PSR sort gate)” value read?
Its value is “low polyreactivity”.

Which “polyreactivity (PSR sort gate)” value does the source give for “QVHLVESGGGLVQAGGSLRLSCSASGSTFYRYAMGWYRQAPGKERELVAAINTGGSTNYADSVKGRFTISRDNAKNTVYLQMNSLKPEDTAVYYCAARFQYYRKYDYWGQGTQVTVSS” here?
Its value is “low polyreactivity”.

With “QVHLVESGGGLVQAGGSLRLSCTASGRTFKYNSMGSSRQEPGKERELVAAISSRGGSTYYADSVKGRFTISRDNAKNTVYLQMNSLKPEDTAVYYCAAQFTTRYDWGQGTQVTVSS” as the sequence, how does the “polyreactivity (PSR sort gate)” value read?
The value was “high polyreactivity”.

For “QVHLVESGGGLVQAGGSLRLSFAASGLIFSAYAMAWYRQAPGKERELVAAISSSGGRTYYADSVKGRFTISRDNAKNTVYLQMNSLKPEDTAVYYGNAASKNSGRYAYQNYDYWGQGTQVTVSS”, which “polyreactivity (PSR sort gate)” value is on record?
The value was “high polyreactivity”.

For “QVHLVESGGGLVQAGGSLRLSFAASGRIFWDNAMGWYRQAHGKERELVAAISDSVVITYYADSVKGRFTISRDNAKNTVYLQMNSLKPEDTAVYYCAADKRGTVYLSSFWMDYWGQGTQVTVSS”, which “polyreactivity (PSR sort gate)” value is on record?
Its value is “low polyreactivity”.

For “QVHLVESGGGLVQAGGSLRLSFAASGRISRIYTMVWYRPAPGKERELVAAITSRGGSTYYADSLKGRFTISRDNAKNTVYFQMNSLNPEDTAVYYCAAGTFWWGYRSKGDEYDYWGQGTKVTVSS”, which “polyreactivity (PSR sort gate)” value is on record?
Its value is “high polyreactivity”.

Which “polyreactivity (PSR sort gate)” value does the source give for “QVHLVESGGGLVQAGGSLRLSFDASGRIFYRNVMGWYRQAPGKERELVATITWGGSTYYADSVKGRFTISRYNEKNTVYLQMNSLKPEDTAVYYCATVRSRLFGQYYYWGQGTQVTVTS” here?
Its value is “high polyreactivity”.

With “QVHLVESGGGLVQAGGSLRLSGAASGLTFSGNAMGWYRQAPGKERELVAAISWNGGRTYYADSVKGRFTISRDNAKNTVYLQMNSLKPEDTAVYYCAAEVRYSTYEDYDYWGQGTEVTVSS” as the sequence, how does the “polyreactivity (PSR sort gate)” value read?
The value was “low polyreactivity”.

Which “polyreactivity (PSR sort gate)” value does the source give for “QVHLVESGGGLVQAGGSLRLSGAASGRIFFSNAMGWYRQAPGKEWELVAAISTSGGSTYYADSVKGRFTISRENAKNTVYLQMNSLKPEDTAVYYCNAVYYTSYSGYHFVYEYDYWGQGTQVTVSS” here?
Its value is “low polyreactivity”.

With “QVHLVESGGGLVQAGGSLRLSLAASGSIFHPYAMGWYRQAPGKERELVAAISKSGGNTYYADSVKGRFTISRDNAKNNVYLQMNSLKPVDPEVYYCAALDYWGQGTKVTVSS” as the sequence, how does the “polyreactivity (PSR sort gate)” value read?
The value was “low polyreactivity”.

For “QVHLVESGGGLVQAGGSLRLSSAASGITFWHNTMGWYRQAPGKERELVAAISWTGGRTYYADSVKGRFTISRDNAKNTVYLQMNSLKPEDTAVFSCAADFSWTPCGNYDSWGQGTQVTVSS”, which “polyreactivity (PSR sort gate)” value is on record?
Its value is “low polyreactivity”.

For “QVHLVESGGGLVQAGGSLRLSSAASGSTFLYYGMGWYRQAPGTERELVATITWRGGRTYYADSVKGRFTISRDNAKNSVYLQMNSLNPEDTAVYYCAARVVGSYLKPYPYGLYYWGQGTQVTVSS”, which “polyreactivity (PSR sort gate)” value is on record?
Its value is “high polyreactivity”.
